Target: T1, RAS G12V (KRAS, HRAS or NRAS) peptide on HLA-DRA*01:01 / HLA-DRB1*01:01 (human)
T1 peptide: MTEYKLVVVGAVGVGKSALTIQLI
Assay: cytokine release
Protocol: FIG. 2 is a graph showing IFN-γ secretion (spots/3e4 cells) measured by ELISPOT assay following co-culture of effector cells with target cells. […] Target cells were […] or HEK 293 cells independently transfected with one of the HLA Class II heterodimers shown. The target cells were loaded with the G12V 24-mer peptide and were cultured in the presence or absence of an antibody which blocked the respective HLA Class II molecule previously transfected. Target cells cultured with DMSO served as a negative control.
Reactivity was tested by IFNγ-secretion using ELISpot assay. […] This reactivity was blocked by an antibody which recognized the DRA*01:01/DRB1*01:01 heterodimer.

binding result: recognises
B1: 4304 TCR1 (TCR, V domains shown)
Valpha: AQRVTQPEKLLSVFKGAPVELKCNYSYSGSPELFWYVQYSRQRLQLLLRHISRESIKGFTADLNKGETSFHLKKPFAQEEDSAMYYCALLQGAQKLVFGQGTRLTINP
Vbeta: SAVISQKPSRDICQRGTSLTIQCQVDSQVTMMFWYRQQPGQSLTLIATANQGSEATYESGFVIDKFPISRPNLTFSTLTVSNMSPEDSSIYLCSVESGQDYGYTFGSGTRLTVV

— patent US20230257440A1 (published 2023)
